# Results taken from US20250270300A1 (UNIVERSITY COURT OF THE UNIVERSITY OF ABERDEEN, published 2025).
# T1: Recombinant Hyr1 N-terminus fragment (Candida albicans, UniProt Q5AL03 63-350)
# T1 construct: the last 288 residues are Hyr1 63-350; Expressed in HEK293F cells, 32 kDa; also called recombinant N-terminus of the Hyr1 protein; purified Hyr1 protein
# T1 sequence: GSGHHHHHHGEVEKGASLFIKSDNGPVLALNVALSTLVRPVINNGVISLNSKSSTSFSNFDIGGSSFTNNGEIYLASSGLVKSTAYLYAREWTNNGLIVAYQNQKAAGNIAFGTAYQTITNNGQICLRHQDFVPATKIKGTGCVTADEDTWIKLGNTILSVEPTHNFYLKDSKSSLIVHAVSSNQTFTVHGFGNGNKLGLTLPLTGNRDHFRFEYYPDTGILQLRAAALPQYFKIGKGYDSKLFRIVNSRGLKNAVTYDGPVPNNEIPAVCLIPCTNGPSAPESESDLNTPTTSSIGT
# Key:
# [1] = target: T2, human serum albumin (human, UniProt P02768 25-609); experiment: ELISA
# T2 construct: also called HSA
# [2] = target: T1, Recombinant Hyr1 N-terminus fragment; experiment: ELISA, plate coated with recombinant Hyr1 N-terminus, titrated mAb
# T2 sequence (P02768 25-609 limits assumed): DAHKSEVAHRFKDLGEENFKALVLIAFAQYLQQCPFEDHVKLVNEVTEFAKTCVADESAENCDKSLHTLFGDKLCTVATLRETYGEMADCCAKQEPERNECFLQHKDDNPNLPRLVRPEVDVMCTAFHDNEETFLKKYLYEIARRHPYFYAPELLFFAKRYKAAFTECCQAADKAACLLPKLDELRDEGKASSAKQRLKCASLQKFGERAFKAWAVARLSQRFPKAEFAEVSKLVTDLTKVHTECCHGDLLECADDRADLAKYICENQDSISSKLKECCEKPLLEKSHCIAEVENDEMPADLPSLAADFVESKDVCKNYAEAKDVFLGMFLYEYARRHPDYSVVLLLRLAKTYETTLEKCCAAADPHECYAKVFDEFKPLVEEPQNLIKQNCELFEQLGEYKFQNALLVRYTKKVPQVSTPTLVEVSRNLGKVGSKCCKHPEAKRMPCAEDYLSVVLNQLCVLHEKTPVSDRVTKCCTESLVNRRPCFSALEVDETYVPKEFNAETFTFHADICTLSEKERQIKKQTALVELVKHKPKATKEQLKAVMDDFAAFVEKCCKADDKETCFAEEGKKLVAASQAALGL
Binder,binding result [1],EC50 [2] [µg/mL]
"AB119 (antibody, human IgG1, V domains shown, Tested as purified recombinant whole human IgG1 (Expi293F); also called 06-AB-119; anti-whole cell mAb) VH: QVTLKESGGGLVQPGGSLRLSCVASGFTFRTYWMHWVRQDPGKGLVWVSRLDEVGRLTSYADSVNGRFTISRDNAKNILYLQMNSLRAEDTGVYYCARDLSGSADYWGQGTLVTVSS VL: DVVLTQSPLFLPVTPGEPASISCRSSQSLLHSRGHTSLHWYLQKPGQSPHLLIYSVFNRASGVPDRFSGSGSGTDFTLKISRVEAEDVGVYYCMQALEPPYTFGQGTKLEIK",no binding,
"AB122 (antibody, human IgG1, V domains shown, Tested as purified recombinant whole human IgG1 (Expi293F); also called 06-AB-122; anti-Hyr1 mAb) VH: EVQLVQSGGGLAQPGRSLRLSCAASGFGFDDFAMHWVRQPPGKGLEWVSGLTWNGGSIDYAGSVRGRFTISRDNAKNSLFLQMNSLRAEDTALYYCAKGLSGGTMAPFDIWGQGTMVSVSS VL: QAGLTQPPSVSVAPGQTATIPCGGNNIGSKHVHWYQQKPGQAPVAVVYDDSDRPSGVPERFSGSNSGNTATLTISSVEAGDEADYYCQVWDRSSDHFWLFGGGTRLTVL",no binding,0.0496
"AB126 (antibody, human IgG1, V domains shown, Tested as purified recombinant whole human IgG1 (Expi293F); also called 06-AB-126; anti-whole cell mAb) VH: EVQLVESGGGLAQPGGSLRLSCEASGFHLAGNAMAWVRQAPGKGLEWVAAIGGSDDRTDYADSVKGRFTISRDKSKNTLSLQMNSLRVEDTAVYYCAKDIWRWAFDYWGQGTLVSVSS VL: DIVMTQSPATLSLSPGERATLSCWASQYINTYVNWYQHKPGQAPRLLIYDASKRATGIPARFSGSGSGTDFTLTISSLEPEDFAVYYCQQGSNWPLTFGQGTRLEIK",no binding,
"AB121 (antibody, human IgG1, V domains shown, Tested as purified recombinant whole human IgG1 (Expi293F); also called 06-AB-121; anti-Hyr1 mAb) VH: EVQLVESGGTLVQPGGSLRLSCAASGFTFSDYWMNWVRQAPGKGLEWVANIKQDGSEKYYVDSLRGRVTISRDNAQNSVFLQMHSLSVEDTAVYYCARDGYTFGPATTELDHWGRGTLVSVSS VL: QLVLTQPPSVSVSPGQTASITCSGDELRNKYTSWYQQKSGQSPVLVIYQDNNRPSGIPERFSGSQSGDTATLTISGTQAVDEADYYCQAWVSQTLVFGGGTKLTVL",no binding,0.0765
"AB131 (antibody, human IgG1, V domains shown, Tested as purified recombinant whole human IgG1 (Expi293F); also called 06-AB-131; anti-whole cell mAb) VH: QVQLVQSGGGVVQPGGSLRLSCAASPFTFKTSILHWVRQAPGKGLEWVSAMSYDGFSKYYADSVKGRLTISRDSSTNTLYLEMNSLRFEDTALYFCAREAYTSGRAGCFNPWGQGVLVSVSS VL: DIVMTQTPSTQSASVGDRVTITCRASQSISIWLAWYQQKPGKAPKLLIHDASTLESGVPSRFSGSGSGTEFTLTISSLQPDDSATYYCQRYNDYPPTFGPGTKVEIK",no binding,
"AB132 (antibody, human IgG1, V domains shown, Tested as purified recombinant whole human IgG1 (Expi293F); also called 06-AB-132; anti-whole cell mAb) VH: QVLKESGGGVVQPGGSLRLSCAASPFTFETSILHWVRQAPGKGLEWVSAMSYDGFSKYYADSVKGRLTISRDSSTNTLYLEMNSLRFEDTALYFCAREAYTSGRAGCFDPWGQGVLVSVSS VL: EIVMTQSPSTQSASVGDRVTITCRASQSISIWLAWYQQKPGKAPKLLIHDASTLESGVPSRFSGSGSGTEFTLTISSLQPDDSATYYCQRYNDYPPTFGPGTKVEIK",no binding,
"AB123 (antibody, human IgG1, V domains shown, Tested as purified recombinant whole human IgG1 (Expi293F); also called 06-AB-123; anti-Hyr1 mAb) VH: EVQLLESGGGVVQPGRSLRLSCAASGFTFSNYGMHWVRQAPGKGLEWVAVVWFDGSYKYYTDSVKGRFTISRDNSKSTLYLQMNSLRAEDTAVYYCVSPIMTSAFDIWGPGTMVSVSS VL: QLVLTQPPSASGSPGQSVTISCTGTSSDVGGSNFVSWYQHHPGKAPKLMIYEVSQRPSGVPDRFSGSKSGNTASLTVSGLQADDEADYYCSSYAGSVVLFGGGTKLTVL",no binding,0.0533
"AB124 (antibody, human IgG1, V domains shown, Tested as purified recombinant whole human IgG1 (Expi293F); also called 06-AB-124; anti-Hyr1 mAb) VH: EVQLVESGGGVVQPGRSLRLSCAASGFTFSNYGMHWVRQAPGKGLEWVAVVWLDGSYKYYTGSVKGRFTISRDNSKSTLYLQMNSLRAEDTAAYYCVSPIMTSAFDIWGPGTMVTVSS VL: QLVLTQPPSASGSPGQSVTISCTGTSSDVGGSNFVSWYQHHPGKAPKLMIYEVSQRPSGVPDRFSGSKSGNTASLTVSGLQADDEADYYCSSYAGSVVLFGGGTKLTVL",no binding,1.05
"AB127 (antibody, human IgG1, V domains shown, Tested as purified recombinant whole human IgG1 (Expi293F); also called 06-AB-127; anti-whole cell mAb) VH: EVQLVESGGGLVNPGGSLRLSCAASGFTFSNYAMNWVRQAPGKGLEWVSSISRSGDYIYYADSLKGRSTISRDNAKNSLFLQMNSLRAEDSAVYYCARDWGRLGYCSSNNCPDAFDVWGQGTRVSVSS VL: EIVMTQSPSFVSASVGDRVTITCRASQDISNWLVWYQQKPGKAPKLLIYASSNLQSGVPSRFSGSGSGTDFALTIISLQPEDFATYYCQQENSFPYTFGQGTKLEIK",no binding,
"AB120 (antibody, human IgG1, V domains shown, Tested as purified recombinant whole human IgG1 (Expi293F); also called 06-AB-120; anti-Hyr1 mAb) VH: EVQLVQSGGGLVQPGGSLGLSCAASGFIFTSYAMTWVRQAPGKGLEWVSVITGNVGTSYYADSVKGRFTISRDNSKKTVSLQMNSLRAEDTAIYYCVKTRYDFSSGYYFDDWGQGTLVSVSS VL: DIVMTQSPSSVSASVGDKVTITCRASQGISRWLAWYQQKPGEAPELLIYAASSLQSGVPSRFSGSGSGTDFTLTISSLQPEDFATYYCQQANSFPITFGQGTRLQIK",no binding,0.104
"AB134 (antibody, human IgG1, V domains shown, Tested as purified recombinant whole human IgG1 (Expi293F); also called 06-AB-134; anti-whole cell mAb) VH: QLQLQESGGGLVQPGGSLRLSCVVSGFTFSSHAMSWVRQAPGKGLEWVSSISISGGDTFYADSVRGRFTIFRDNSKNTVYLQMNSLRAEDTAVYYCATETSPNDYWGQGTLVSVSS VL: SYELTQPSSLTVSPGGTVTLTCGLSSGAVTSGHYPYWFQQKPGQAPKTLIFDTSRKHSWTPARFSGSLLGGKAALTLSGAQPEDDADYYCLLACNGACVFGGGTKLTVL",no binding,
"AB135 (antibody, human IgG1, V domains shown, Tested as purified recombinant whole human IgG1 (Expi293F); also called 06-AB-135; anti-whole cell mAb) VH: EVQLVETGGGLVQPGGSLRLSCVVSGFTFSSHAMSWVRQAPGKGLEWVSSISISGGDTFYADSVRGRFTIFRDNSKNTVYLQMNSLRAEDTAVYYCATETSPNDYWGQGTLVTVSS VL: SYELTQPSSLTVSPGGTVTLTCGLSSGAVTSGHYPYWFQQKPGQAPKTLIFDTSRKHSWTPARFSGSLLGGKAALTLSGAQPEDDADYYCLLACNGACVFGGGTKLTVL",no binding,
"AB129 (antibody, human IgG1, V domains shown, Tested as purified recombinant whole human IgG1 (Expi293F); also called 06-AB-129; anti-whole cell mAb) VH: QVQLVESGGGLVQPGGSLRLSCSASQFILSNYWVHWVRQVPGEGLVWVSRINEDGSVTSYADSVKGRFTISRDNAKNTLYLQMNSLRVDDTAVYYCVRDLCGERDDWGQGTLVTVSS VL: VIWMTQSPLSLPVTPGEAASISCRSSQSLLHRNGRTFFAWYLQKPGQSPQILIYLGSNRAFGVPDRFSGSGSGTDFTLKISRVEAEDVGIYYCMQGLQTPYTFGQGTKLEIK",no binding,
"AB118 (antibody, human IgG1, V domains shown, Tested as purified recombinant whole human IgG1 (Expi293F); also called 06-AB-118; anti-whole cell mAb) VH: EVQLVESGGGLVQPGGSLRLSCSASQFILSNYWVHWVRQVPGEGLVWVSRINEDGSVTSYADSVKGRFTISRDNAKNTLYLQMNSLRVDDTAVYYCVRDLCGERDDWGQGTLVSVSS VL: DIVMTQSPLSLPVTPGEAASISCRSSQSLLHRNGKTFFAWYLQKPGQSPQILIYLGSNRASGVPDRFSGSGSGTDFTLKISRVEAEDVGIYYCMQGLQTPYTFGQGTKLEIK",no binding,
"AB130 (antibody, human IgG1, V domains shown, Tested as purified recombinant whole human IgG1 (Expi293F); also called 06-AB-130; anti-whole cell mAb) VH: QLQLQESGGGLVQPGGSLRLSCSASQFILSNYWVHWVRQVPGEGLVWVSRINEDGSVTSYADSVKGRFTISRDNAKNTLYLQMNSLRVDDTAVYYCVRDLCWERDDWGQGTLVSVSS VL: VIWMTQSPLSLPVTPGEAASISCRSSQSLLHRNGRTFFAWYLQKPGQSPQILIYLGSNRAFGVPDRFSGSGSGTDFTLKISRVEAEDVGIYYCMQGLQTPYTFGQGTKLEIK",no binding,
"AB133 (antibody, human IgG1, V domains shown, Tested as purified recombinant whole human IgG1 (Expi293F); also called 06-AB-133; anti-whole cell mAb) VH: EVQLVESGGGLVQPGGSLRVSCAASGFTLNTYWMHWVRQAPGKGLVWVSRINEDGTTISYADSVRGRFTISRDNAENTLYLQMHSLRAEDTGVYYCARDFTGPFDSWGQGTLVSVSS VL: QSVLTQPPSVSGTPGQRVTISCSGSNSNAGRDYVSWYQQVPGTAPKLLIYKNNQRPSGVPDRFSGSKSGTSASLAISGLRSEDDGDYYCIVWDGSLSGYVFGTGTKVTVL",no binding,
"AB139 (antibody, human IgG1, V domains shown, Tested as purified recombinant whole human IgG1 (Expi293F); also called 06-AB-139; anti-whole cell mAb) VH: EVQLVESGGGLVQPGGSLRVSCAASGFTLNTYWMHWVRQAPGKGLVWVSRINEDGTTISYADSVRGRFTISRDNAENTLYLQMHSLRAEDTGVYYCARDFTGPFDSWGQGTLVSVSS VL: QSVLTQPPSVSGTPGQRVTISCSGSNSNVGRDYVSWYQQVPGTAPKLLIYKNNRRPSGVPDRFSGSKSGTSASLAISGLRSEDDGDYYCIVWDGSLSGYVFGTGTKVTVL",no binding,
"AB140 (antibody, human IgG1, V domains shown, Tested as purified recombinant whole human IgG1 (Expi293F); also called 06-AB-140; anti-whole cell mAb) VH: EVQLVESGGGLVQPGGSLRVSCAASGFTLNTYWMHWVRQAPGKGLVWVSRINEDGTTISYADSVRGRFTISRDNAENTLYLQMHSLRAEDTGVYYCARDFTGPFDSWGQGTLVSVSS VL: QLVLTQPPSVSGTPGQRVTISCSGSNSNVGRDYVSWYQQVPGTAPKLLIYKNNQRPSGVPDRFSGSKSGTSASLAISGLRSEDDGDYYCIVWDGSLSGYVFGTGTKVTVL",no binding,
